Laboratory results from patent US20050234221A1 (Amgen, published 2005).

Molecular target: T1, IL-17RB-3-Fc fusion protein (human)
T1 construct: Used as 5x concentrated conditioned medium; also called huIL-17RB-3 like-Fc; HIL17RB-3-Fc
Experiment: restates the competition assay of Example 8
Method: The conditioned media from 293E cells transfected to express IL-17E-Fc fusion protein (SEQ ID NO: 23), prepared as described in Example 7 above, was collected, concentrated and used for the binding assay. Specificity of ligand binding was determined by competition with soluble blocking receptors, either IL-17RB-2-Fc or IL-17RB-3-Fc fusion proteins (SEQ ID NOS: 22 or 23, respectively). IL-17R-Fc fusion protein (consisting of the extracellular domain of SEQ ID NO: 3) was purified from conditioned media collected from transfected 293E cells and used as a control. Conditioned media from 293E cells transfected with IL-17RB-2-Fc or IL-17-RB-3-Fc (deposited with the ATCC on Mar. 14, 2001 under Accession Nos. and respectively), as described in Example 6 above, was concentrated (5×) with an Amicon 3Kd cut-off Centracon (#4203) and used for blocking.
Prior to the binding assay, 0.5 ml of IL-17E-Fc fusion protein containing (1×) conditioned media was added into vials each containing 0.5 ml 5× conditioned media of IL-17RB-2-Fc, IL-17RB-3-Fc, or 0.5 ml of 5 μg/ml IL-17R-Fc protein in RPMI 1640. Each vial was incubated on ice for 2 hours.
Subsequently, GM3104A cells (1×10⁶ cells per sample) were incubated with 1 ml of 8% FBS/PBS, at 4° C. for 1 hour. […]

binding result: binds
B1: recombinant human IL-17E-Fc fusion protein (Fc fusion)
chain: YSHWPSCCPSKGQDTSEELLRWSTVPVPPLEPARPNRHPESCRASEDGPLNSRAISPWRYELDRDLNRLPQDLYHARCLCPHCVSLQTGSHMDPRGNSELLYHNQTVFYRRPCHGEKGTHKGYCLERRLYRVSLACVCVRPRVMGEPKSADKTHTCPPCPAPELLGGPSVFLFPPKPKDTLMISRTPEVTCVVVDVSHEDPEVKFNWYVDGVEVHNAKTKPREEQYNSTYRVVSVLTVLHQDWLNGKEYKCKVSNKALPAPIEKTISKAKGQPREPQVYTLPPSRDELTKNQVSLTCLVKGFYPSDDIAVEWESNGQPENNYKTTPPVLDSDGSFFLYSKLTVDKSRWQQGNVFSCSVMHEALHNHYTQKSLSLSPGK
notes: Used as conditioned medium of transfected 293E cells; also called IL-17 like-Fc; rhIL-17 like-Fc
